{
  "source": "paper PMC7515715",
  "about": "(Nucleic Acids Research, 2020)",
  "proteins": {"B1": {"name": "E. coli stringent starvation protein A (SspA), wild type (natural protein)", "chain": "MAVAANKRSVMTLFSGPTDIYSHQVRIVLAEKGVSFEIEHVEKDNPPQDLIDLNPNQSVPTLVDRELTLWESRIIMEYLDERFPHPPLMPVYPVARGESRLYMHRIEKDWYTLMNTIINGSASEADAARKQLREELLAIAPVFGQKPYFLSDEFSLVDCYLAPLLWRLPQLGIEFSGPGAKELKGYMTRVFERDSFLASLTEAEREMRLGRS"}},
  "target": "the molecule itself",
  "experiment": "cryo-EM structure",
  "data": [
    {"protein": "B1", "values": [
      {"measurement": "stoichiometry N", "value": 2}
    ]}
  ]
}
